{"source": "patent US20240059799A1", "about": "(Pfizer, published 2024)", "binders": {"B1": {"name": "p40TL1A-0033 (bispecific antibody, human IgG1, kappa)", "heavy": "EVQLVQSGAEVKKPGESLKISCKGSGYSFTTYWLGWVRQMPGKGLDWIGIMSPVDSDIRYSPSFQGQVTMSVDKSITTAYLQWNSLKASDTAMYYCARRRPGQGYFDFWGQGTLVTVSSASTKGPSVFPLAPSSKSTSGGTAALGCLVKDYFPEPVTVSWNSGALTSGVHTFPAVLQSSGLYSLSSVVTVPSSSLGTQTYICNVNHKPSNTKVDKKVEPKSCDKTHTCPPCPAPEAAGAPSVFLFPPKPKDTLMISRTPEVTCVVVDVSHEDPEVKFNWYVDGVEVHNAKTKPREEQYNSTYRVVSVLTVLHQDWLNGKEYKCKVSNKALPAPIEKTISKAKGQPREPQVCTLPPSREEMTKNQVSLWCLVKGFYPSDIAVEWESNGQPENNYKTTPPVLDSDGSFFLYSKLTVDKSRWQQGNVFSCSVLHEALHSHYTQKSLSLSPGK", "light": "not shown", "chain 1": "not shown", "chain 2": "QVQLVQSGAEVKKPGASVKVSCKASGYDYTYYGISWVRQAPGQGLEWMGWISTYNTGTHYAPSLQGRVTMTTDTSTSTAYMELRSLRSDDTAVYYCARESYYGSGAFRGGMDVWGQGTTVTVSSASTKGPSVFPLAPSSKSTSGGTAALGCLVKDYFPEPVTVSWNSGALTSGVHTFPAVLQSSGLYSLSSVVTVPSSSLGTQTYICNVNHKPSNTKVDKKVEPKSC", "notes": "single cell, KiH, modified Fd, LS"}, "B2": {"name": "p40TL1A-0024 (bispecific antibody, human IgG1, kappa)", "heavy 1": "B1 heavy with C351Y, W368T, K411R", "light 1": "not shown", "heavy 2": "QVQLVQSGAEVKKPGASVKVSCKASGYDYTYYGISWVRQAPGQGLEWMGWISTYNTGTHYAPSLQGRVTMTTDTSTSTAYMELRSLRSDDTAVYYCARESYYGSGAFRGGMDVWGQGTTVTVSSASTKGPSVFPLAPSSKSTSGGTAALGCLVKDYFPEPVTVSWNSGALTSGVHTFPAVLQSSGLYSLSSVVTVPSSSLGTQTYICNVNHKPSNTKVDKKVEPKSCDKTHTCPPCPAPEAAGAPSVFLFPPKPKDTLMISRTPEVTCVVVDVSHEDPEVKFNWYVDGVEVHNAKTKPREEQYNSTYRVVSVLTVLHQDWLNGKEYKCKVSNKALPAPIEKTISKAKGQPREPQVYTLPPSREEMTKNQVSLTCEVKGFYPSDIAVEWESNGQPENNYKTTPPVLDSDGSFFLYSKLTVDKSRWQQGNVFSCSVLHEALHSHYTQKSLSLSPGK", "light 2": "not shown", "notes": "dual cell, E/R, LS"}, "B3": {"name": "p40TL1A-0032 (bispecific antibody)", "heavy 1": "B1 heavy with L130K, V187S", "light 1": "DIQMTQSPSSLSASVGDRVTITCRASQGISSWLAWYQQKPEKAPKSLIYAASSLQSGVPSRFSGSGSGTDFTLTISSLQPEDFATYYCQQYNIYPYTFGQGTKLEIKRTVAAPSVFIFPPSDEQLKSGTASVSCLLNNFYPREAKVQWKVDNALQSGNSQESVTEQDSKDSTYSLDSTLTLSKADYEKHKVYACEVTHQGLSSPVTKSFNRGEC", "heavy 2": "B2 heavy 2 with L135E, S190G, S361C, T373S, E375A, Y414V", "light 2": "not shown", "notes": "single cell, KiH, S1-S1rev, LS"}, "B4": {"name": "p40TL1A-0021 (bispecific antibody)", "heavy 1": "B1 heavy with D223R, C351Y, W368T, K411R", "light 1": "not shown", "heavy 2": "B2 heavy 2 with D228E", "light 2": "not shown", "notes": "dual cell, EE/RR, LS"}, "B5": {"name": "p40TL1A-0001 (bispecific antibody)", "heavy 1": "B1 heavy with D223R, P230R, C351Y, W368T, K411R", "light 1": "not shown", "heavy 2": "B2 heavy 2 with D228E, P235E", "light 2": "not shown", "notes": "dual cell, EEE/RRR, LS"}, "B6": {"name": "p40TL1A-0018 (bispecific antibody, human IgG1, kappa)", "heavy 1": "B1 heavy with C351Y", "light 1": "not shown", "heavy 2": "B2 heavy 2 with T373S, E375A, Y414V", "light 2": "not shown", "notes": "dual cell, KiH without Cys in CH3, LS"}, "B7": {"name": "p40-0003 antibody (antibody, human IgG1, kappa, V domains shown)", "VH": "EVQLVQSGAEVKKPGESLKISCKGSGYSFTTYWLGWVRQMPGKGLDWIGIMSPVDSDIRYSPSFQGQVTMSVDKSITTAYLQWNSLKASDTAMYYCARRRPGQGYFDFWGQGTLVTVSS", "VL": "DIQMTQSPSSLSASVGDRVTITCRASQGISSWLAWYQQKPEKAPKSLIYAASSLQSGVPSRFSGSGSGTDFTLTISSLQPEDFATYYCQQYNIYPYTFGQGTKLEIKR"}, "B8": {"name": "p40TL1A-0001 bispecific antibody (bispecific antibody)", "heavy 1": "B1 heavy with D223R, P230R, C351Y, W368T, K411R", "light 1": "not shown", "heavy 2": "B2 heavy 2 with D228E, P235E", "light 2": "not shown"}, "B9": {"name": "p40TL1A-0018 bispecific antibody (bispecific antibody, human IgG1, kappa)", "heavy 1": "B1 heavy with C351Y", "light 1": "not shown", "heavy 2": "B2 heavy 2 with T373S, E375A, Y414V", "light 2": "not shown"}, "B10": {"name": "TL1A-0372 monovalent bispecific antibody (bispecific antibody, human IgG1, kappa)", "heavy 1": "B2 heavy 2 with Y356C, T373W, E375L", "heavy 2": "not shown", "light": "not shown"}}, "note": "Residue numbers refer to the chain shown, from its start."}
{"target": "T1, human IL-23 (human, UniProt P29460 23-328; Q9NPF7 20-189)", "T1 construct": "Heterodimer p40/p19; Whole entries as named; also called IL-23 Human; recombinant human IL-23", "T1 sequence 1": "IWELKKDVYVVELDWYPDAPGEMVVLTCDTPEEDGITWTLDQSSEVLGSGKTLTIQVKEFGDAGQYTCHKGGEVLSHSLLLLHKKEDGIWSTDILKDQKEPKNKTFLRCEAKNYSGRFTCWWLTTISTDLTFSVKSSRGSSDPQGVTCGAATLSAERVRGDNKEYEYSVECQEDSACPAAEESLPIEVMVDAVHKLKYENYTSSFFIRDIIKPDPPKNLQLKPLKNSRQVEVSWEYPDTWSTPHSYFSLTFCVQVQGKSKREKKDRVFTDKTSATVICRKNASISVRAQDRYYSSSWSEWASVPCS", "T1 sequence 2": "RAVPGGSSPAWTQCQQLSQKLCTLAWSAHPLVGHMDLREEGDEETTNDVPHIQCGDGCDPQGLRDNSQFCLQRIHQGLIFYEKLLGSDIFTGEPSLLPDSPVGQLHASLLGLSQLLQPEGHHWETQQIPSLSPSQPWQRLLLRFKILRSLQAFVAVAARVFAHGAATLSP", "experiment": "SPR, bispecific held on captured biotinylated human TL1A, then human IL-23 injected (simultaneous binding)", "method": "SPR was used to determine if the bispecific variants could simultaneously bind TL1A and IL-23, containing the p40 domain. For this analysis, a semi-quantitative SPR method was developed using Biacore™ T200 (GE Healthcare) instrumentation. […] The bispecific was injected for 90 seconds at a concentration of 20 μg/m L, a flow rate of 50 μL/minute, and captured to a level of approximately 40-150 RU. Next, recombinant human IL-23 was injected for 60 seconds and a flow rate of 50 μL/minute at a concentration range of 0.37-15 nM.", "units": {"Kd": "nM", "koff": "s⁻¹", "kon": "M⁻¹ s⁻¹"}}
{"binder": "B1", "Kd": 0.0791, "koff": 0.000519, "kon": "6.56e+06"}
{"binder": "B2", "Kd": 0.107, "koff": 0.000571, "kon": "5.32e+06"}
{"binder": "B3", "Kd": 0.0788, "koff": 0.000546, "kon": "6.93e+06"}
{"binder": "B4", "Kd": 0.0738, "koff": 0.000524, "kon": "7.11e+06"}
{"binder": "B5", "Kd": 0.09, "koff": 0.000584, "kon": "5.98e+06"}
{"binder": "B6", "Kd": 0.0944, "koff": 0.000521, "kon": "5.51e+06"}
{"target": "T1, human IL-23", "experiment": "SPR 37 C, bispecific captured by anti-human Fc, human IL-23 injected", "method": "(§1) SPR was utilized to determine if the affinity constants of each arm of the bispecific variants binding human IL-23, containing the p40 subunit, and human TL1A were the same for each bispecific approach. For the analysis of the p40 binding arm, kinetic assays were conducted at 37° C. using a collection rate of 10 Hz on a Biacore™ 8 K+ instrument (GE Healthcare). An anti-human IgG antibody (anti-human Fc, GE Healthcare, 22-0648-88) was amine coupled to all four flow cells of a carboxymethylated dextran coated sensor chip (GE Healthcare,) using the manufacturer's recommended protocol. […] For the analysis of the TL1A binding arm, kinetic assays were conducted at 37° C. using a collection rate of 10 Hz on a Biacore™ T200 instrument (GE Healthcare).", "units": {"Kd": "nM", "koff": "s⁻¹", "kon": "M⁻¹ s⁻¹"}}
{"binder": "B1", "Kd": 0.557, "koff": 0.00115, "kon": "2.07e+06"}
{"binder": "B2", "Kd": 0.9, "koff": 0.00157, "kon": "1.75e+06"}
{"binder": "B3", "Kd": 0.567, "koff": 0.00109, "kon": "1.92e+06"}
{"binder": "B4", "Kd": 0.859, "koff": 0.00152, "kon": "1.77e+06"}
{"binder": "B5", "Kd": 0.901, "koff": 0.00156, "kon": "1.73e+06"}
{"binder": "B6", "Kd": 0.659, "koff": 0.00121, "kon": "1.83e+06"}
{"target": "T2, human IL-23 (human, UniProt P29460 23-328; Q9NPF7 20-189)", "T2 sequence 1": "T1 sequence 1", "T2 sequence 2": "T1 sequence 2", "experiment": "cell-based or functional assay", "units": {"KIT-225 STAT3 assay IL-23, Bioactivity relative to p40-0003": "fold", "KIT-225 STAT3 assay IL-23 IC50": "nM"}}
{"binder": "B7", "KIT-225 STAT3 assay IL-23, Bioactivity relative to p40-0003": 1, "KIT-225 STAT3 assay IL-23 IC50": 1.6}
{"binder": "B8", "KIT-225 STAT3 assay IL-23, Bioactivity relative to p40-0003": 2.4, "KIT-225 STAT3 assay IL-23 IC50": 3.9}
{"binder": "B9", "KIT-225 STAT3 assay IL-23, Bioactivity relative to p40-0003": 2.1, "KIT-225 STAT3 assay IL-23 IC50": 3.4}
{"target": "T3, recombinant human TL1A (human, UniProt O95150 71-251)", "T3 chain": "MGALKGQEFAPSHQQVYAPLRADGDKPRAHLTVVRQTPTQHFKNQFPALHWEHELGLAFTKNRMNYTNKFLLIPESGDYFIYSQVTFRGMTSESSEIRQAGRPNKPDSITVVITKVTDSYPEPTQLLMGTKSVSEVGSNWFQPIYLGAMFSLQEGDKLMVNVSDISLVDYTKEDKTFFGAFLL", "experiment": "cell-based or functional assay", "units": {"NF-κB assay IC50 (TF-1 reporter cells)": "nM", "NF-κB assay, Bioactivity relative to TL1A-0372": "fold"}}
{"binder": "B8", "NF-κB assay IC50 (TF-1 reporter cells)": 0.0911, "NF-κB assay, Bioactivity relative to TL1A-0372": 0.9}
{"binder": "B9", "NF-κB assay IC50 (TF-1 reporter cells)": 0.105, "NF-κB assay, Bioactivity relative to TL1A-0372": 1}
{"binder": "B10", "NF-κB assay IC50 (TF-1 reporter cells)": 0.102, "NF-κB assay, Bioactivity relative to TL1A-0372": 1}
{"target": "T4, human IL-12 (human, UniProt P29460 23-328; P29459 23-219)", "T4 sequence 1": "T1 sequence 1", "T4 sequence 2": "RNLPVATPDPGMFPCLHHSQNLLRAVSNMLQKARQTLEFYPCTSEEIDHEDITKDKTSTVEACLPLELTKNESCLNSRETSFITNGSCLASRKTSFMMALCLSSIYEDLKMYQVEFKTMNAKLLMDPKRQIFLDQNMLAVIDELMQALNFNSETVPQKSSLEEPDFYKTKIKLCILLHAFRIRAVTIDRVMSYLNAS", "experiment": "cell-based or functional assay", "units": {"KIT-225 STAT4 assay IL-12, Bioactivity relative to p40-0003": "fold", "KIT-225 STAT4 assay IL-12 IC50": "nM"}}
{"binder": "B7", "KIT-225 STAT4 assay IL-12, Bioactivity relative to p40-0003": 1, "KIT-225 STAT4 assay IL-12 IC50": 3.3}
{"binder": "B8", "KIT-225 STAT4 assay IL-12, Bioactivity relative to p40-0003": 1.7, "KIT-225 STAT4 assay IL-12 IC50": 5.7}
{"binder": "B9", "KIT-225 STAT4 assay IL-12, Bioactivity relative to p40-0003": 2, "KIT-225 STAT4 assay IL-12 IC50": 6.6}
{"target": "T5, recombinant human TL1A (human, UniProt O95150 71-251)", "T5 construct": "Homotrimeric cytokine; biotinylated with Sulfo-NHS-biotin where captured for SPR, coated unlabelled in ELISA, soluble in bioassays; also called TNFSF15", "T5 chain": "T3 chain", "experiment": "SPR 37 C, biotinylated human TL1A captured, bispecific injected", "method": "as §1", "units": {"Kd": "nM", "koff": "s⁻¹", "kon": "M⁻¹ s⁻¹"}}
{"binder": "B1", "Kd": 0.253, "koff": "5.52e-05", "kon": 218000}
{"binder": "B2", "Kd": 0.273, "koff": "5.99e-05", "kon": 219000}
{"binder": "B3", "Kd": 0.254, "koff": "6.15e-05", "kon": 243000}
{"binder": "B4", "Kd": 0.183, "koff": "5.6e-05", "kon": 307000}
{"binder": "B5", "Kd": 0.167, "koff": "4.28e-05", "kon": 256000}
{"binder": "B6", "Kd": 0.217, "koff": "4.87e-05", "kon": 224000}
